The source of these data is patent US20170015742A1 (published 2017).

Assay [1] has as its target T1, recombinant human PDGF-Rβ-Fc (R&D Systems #385-PR) (human, UniProt P09619 33-530).
T1 construct: Bought reagent; also called hPDGFRβ-Fc; huPDGF Rβ; not shown: Fc part of the bought fusion protein
The assay is described as follows: direct ELISA on coated recombinant human PDGF-Rβ-Fc (Example 1.26). As for the experimental part:
Plates were then washed four times with wash buffer (TBS, 0.05% Tween-20) and blocked with Superblock blocking buffer (Thermo Scientific, cat#37535). During the blocking step, supernatants, antibodies and benchmark compounds were diluted in assay diluent (10% Superblock containing 0.05% surfactamps) and an eight point titration of each sample molecule was performed. […] Following incubation, plates were washed four times with wash buffer. […] Plates were washed four times with wash buffer and developed with the addition of Enhanced K-blue TMB substrate (Neogen, cat#308177). The reaction was stopped with 2N sulfuric acid (VWR, cat# BDH3500-1) and the absorbance was read at 450 nm-570 nm. […] Data was analyzed using Softmax Pro 4.8 software and IC₅₀ values calculated using a sigmoidal dose response (variable slope) fit in GraphPad Prism 5.

Another assay has as its target T2, Rat PDGF-BB (rat, UniProt Q05028 74-182).
T2 construct: Homodimer of B chains
As to the kind of experiment: affinity KD as tabulated in Table 69; method not given.

The target in a further assay is T3, Rabbit PDGF-BB (rabbit, UniProt Q05028 74-182 (rat entry)).
T3 construct: also called rab PDGF
T3 sequence (Q05028 74-182 limits assumed): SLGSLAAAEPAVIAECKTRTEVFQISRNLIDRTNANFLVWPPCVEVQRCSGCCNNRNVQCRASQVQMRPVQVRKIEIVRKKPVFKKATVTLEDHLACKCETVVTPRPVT
Described as above.

For another assay, the target named is T4, Cynomolgus monkey VEGF-A (cynomolgus monkey, UniProt P15692 207-395 (human entry)).
T4 construct: also called cyno VEGF
T4 sequence (P15692 other isoform, or with tags, fused parts or gaps limits assumed): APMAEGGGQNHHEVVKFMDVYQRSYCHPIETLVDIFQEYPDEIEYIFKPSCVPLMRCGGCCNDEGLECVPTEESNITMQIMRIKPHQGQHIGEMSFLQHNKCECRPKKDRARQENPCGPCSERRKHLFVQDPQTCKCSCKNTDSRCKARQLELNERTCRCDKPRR
Described as above.

The target in assay [2] is T5, Cynomolgus monkey PDGF-BB (cynomolgus monkey, UniProt P01127 82-190 (human entry), limits assumed).
T5 construct: Homodimer of B chains; also called cyno PDGF; cynoPDGF-BB
T5 chain: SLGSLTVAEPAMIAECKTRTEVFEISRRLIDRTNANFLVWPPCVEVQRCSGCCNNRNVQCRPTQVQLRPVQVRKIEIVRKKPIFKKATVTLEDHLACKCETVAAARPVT
The description is as above.

Another assay deals with T6, Mouse PDGF-BB (mouse, UniProt P31240 82-190).
T6 construct: Homodimer of B chains; also called mo PDGF; mPDGF-BB
T6 sequence (P31240 82-190 limits assumed): as the sequence (Q05028 74-182 limits assumed) above, with V83I, V102I counted along it
The assay is described as above.

In assay [3] the target is T7, Recombinant human FcγRIIb, 6xHis-tagged (human, UniProt P31994 46-217, limits assumed).
T7 construct: Captured through its 6xHis tag; also called huFcRIIb
T7 sequence: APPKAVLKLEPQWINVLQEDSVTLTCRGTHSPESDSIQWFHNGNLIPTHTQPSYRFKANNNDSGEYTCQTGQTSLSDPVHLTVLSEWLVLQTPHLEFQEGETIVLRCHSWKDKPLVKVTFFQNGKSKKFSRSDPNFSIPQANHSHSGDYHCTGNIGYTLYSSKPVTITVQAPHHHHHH
As to the kind of experiment: Biacore SPR; His-tagged human FcγR captured on anti-6xHis antibody, DVD-Ig injected. As for the experimental part: (§1) A CM5 chip (GE Healthcare, Pittsburgh, Pa.) with mouse anti-6×His antibodies (“6×His” disclosed as SEQ ID NO: 405) that were directly immobilized on the chip via amine coupling according to the GE Healthcare protocol to the density of 10000RU (all flow cells) was used for experiments. Human FcγRs were captured on flow cells 2, 3 and 4. Flow cell 1 was used as a reference surface. HBS-EP+ was used as the running buffer. […] The chip surfaces were regenerated with an injection of 10 mM glycine pH 1.5 at a flow rate of 100 μL/minute over all four flow cells after each cycle.
(SPR reads the build-up and loss of mass on a sensor chip optically.)

The target in assay [4] is T8, Recombinant human FcγRIIa H131, 6xHis-tagged (human, UniProt P12318 36-218, limits assumed).
T8 construct: Captured through its 6xHis tag
T8 sequence: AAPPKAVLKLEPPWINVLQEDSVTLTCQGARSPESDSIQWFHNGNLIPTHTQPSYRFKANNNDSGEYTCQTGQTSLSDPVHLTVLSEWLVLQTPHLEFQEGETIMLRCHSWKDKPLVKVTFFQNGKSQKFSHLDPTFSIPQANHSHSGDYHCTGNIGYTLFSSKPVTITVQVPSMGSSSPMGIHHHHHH
The assay is described as above. As to the method:
as §1

The target of assay [5] is T9, Recombinant human FcγRIIa R131, 6xHis-tagged (human, UniProt P12318 36-218, limits assumed).
T9 construct: Captured through its 6xHis tag
T9 sequence: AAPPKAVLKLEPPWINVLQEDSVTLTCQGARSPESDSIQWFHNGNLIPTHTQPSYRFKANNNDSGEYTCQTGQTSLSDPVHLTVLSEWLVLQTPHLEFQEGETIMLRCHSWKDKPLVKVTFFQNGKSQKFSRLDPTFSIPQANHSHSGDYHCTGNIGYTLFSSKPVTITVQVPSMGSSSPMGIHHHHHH
Described as above. As for the experimental part:
as §1

In assay [6] the target is T10, Recombinant human FcγRIIIa F158, 6xHis-tagged (human, UniProt P08637 17-208, limits assumed).
T10 construct: Captured through its 6xHis tag
T10 sequence (P08637 other isoform, or with tags, fused parts or gaps limits assumed): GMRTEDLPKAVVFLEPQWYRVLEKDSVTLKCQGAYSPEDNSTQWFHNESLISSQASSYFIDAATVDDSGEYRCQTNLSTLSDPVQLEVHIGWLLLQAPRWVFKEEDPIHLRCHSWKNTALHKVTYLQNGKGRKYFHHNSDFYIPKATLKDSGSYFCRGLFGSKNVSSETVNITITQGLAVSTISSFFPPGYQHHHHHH
The assay is described as above. As for the experimental part: as §1

The target of the next assay is T11, Recombinant rat FcRn (rat, UniProt P13599 23-298, limits assumed).
T11 construct: FcRn is normally a heterodimer with beta-2-microglobulin
T11 sequence (looked up) 1: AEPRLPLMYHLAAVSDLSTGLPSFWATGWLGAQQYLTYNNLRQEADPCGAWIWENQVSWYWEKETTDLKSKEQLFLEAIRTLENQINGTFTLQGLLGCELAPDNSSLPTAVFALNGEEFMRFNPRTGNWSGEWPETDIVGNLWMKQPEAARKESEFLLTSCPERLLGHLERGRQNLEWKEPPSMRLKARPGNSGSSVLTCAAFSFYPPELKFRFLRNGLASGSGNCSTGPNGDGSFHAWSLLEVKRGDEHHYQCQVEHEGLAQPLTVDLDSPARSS
T11 sequence (looked up) 2: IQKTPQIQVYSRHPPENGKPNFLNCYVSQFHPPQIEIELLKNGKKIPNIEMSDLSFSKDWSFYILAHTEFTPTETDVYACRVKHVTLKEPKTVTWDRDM
As to the kind of experiment: Biacore SPR; DVD-Ig immobilised by amine coupling, recombinant FcRn injected; 1:1 binding fit. As for the experimental part: Human, cynomolgus, mouse, rat and rabbit recombinant FcRns were injected over all the flow cells at a flow rate of 50 μL/minute for 1 minute at a concentrations range of from 2.7 to 6000 nM (three fold serial dilution), followed by a 2 minute dissociation time. The surfaces were regenerated with an injection of 10 mM HCl at 100 μL/minute for 2 seconds followed by an injection of HBS-EP+, pH 7.4, at a flow rate of 50 μL/minute for 30 seconds over all four flow cells. Samples were prepared and run in two running buffer systems, pH 6.0 MES-EP+, and pH […]. Recombinant human FcγRIIIa V158 and rat and mouse FcRn data were fitted to 1:1 kinetic model. Recombinant human FcγRIIa R131 and FcγRIIa H131, FcγRIIIa F158, and recombinant human, cynomolgus and rabbit FcRn binding data were fitted to a steady state affinity model. Biacore T200 Evaluation Software version 2.0 was used to fit all the data.

The target of assay [7] is T12, Recombinant human FcγRIIIa V158, 6xHis-tagged (human, UniProt P08637 17-208, limits assumed).
T12 construct: Captured through its 6xHis tag; also called huFcRIIIa 158V
T12 sequence (P08637 other isoform, or with tags, fused parts or gaps limits assumed): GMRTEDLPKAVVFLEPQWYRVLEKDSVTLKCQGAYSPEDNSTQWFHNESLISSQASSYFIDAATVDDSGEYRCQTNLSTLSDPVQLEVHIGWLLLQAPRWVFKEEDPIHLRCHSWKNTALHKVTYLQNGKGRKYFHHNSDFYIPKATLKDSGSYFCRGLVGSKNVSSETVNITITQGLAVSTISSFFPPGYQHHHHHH
As to the kind of experiment: Biacore SPR; His-tagged huFcγRIIIa 158V captured on anti-6xHis antibody, DVD-Ig injected; steady state fit. As for the experimental part: as §1
The binding of DVD-Ig molecules to FcRn from various species and the binding of DVD-Ig molecules to various FcγRs were characterized by Biacore using the method described in Example 1.2.

Assay [8] has as its target T13, recombinant mouse VEGF-R2-Fc (R&D Systems cat#443-KD) (mouse, UniProt P35918 20-762).
T13 construct: Bought reagent; also called mVEGFR2-Fc; mVEGF-R2; not shown: Fc part of the bought fusion protein
The assay is described as follows: competition ELISA: antibody on coated mVEGFR2-Fc against mVEGF164 (Example 1.25).

Assay [9] deals with T14, recombinant human VEGF-R2-Fc (R&D Systems cat#357-KD) (human, UniProt P35968 20-764).
T14 construct: Bought reagent; also called hVEGFR2-Fc; hVEGF-R2 (KDR/Flk-1); not shown: Fc part of the bought fusion protein
T14 sequence (P35968 20-764 limits assumed): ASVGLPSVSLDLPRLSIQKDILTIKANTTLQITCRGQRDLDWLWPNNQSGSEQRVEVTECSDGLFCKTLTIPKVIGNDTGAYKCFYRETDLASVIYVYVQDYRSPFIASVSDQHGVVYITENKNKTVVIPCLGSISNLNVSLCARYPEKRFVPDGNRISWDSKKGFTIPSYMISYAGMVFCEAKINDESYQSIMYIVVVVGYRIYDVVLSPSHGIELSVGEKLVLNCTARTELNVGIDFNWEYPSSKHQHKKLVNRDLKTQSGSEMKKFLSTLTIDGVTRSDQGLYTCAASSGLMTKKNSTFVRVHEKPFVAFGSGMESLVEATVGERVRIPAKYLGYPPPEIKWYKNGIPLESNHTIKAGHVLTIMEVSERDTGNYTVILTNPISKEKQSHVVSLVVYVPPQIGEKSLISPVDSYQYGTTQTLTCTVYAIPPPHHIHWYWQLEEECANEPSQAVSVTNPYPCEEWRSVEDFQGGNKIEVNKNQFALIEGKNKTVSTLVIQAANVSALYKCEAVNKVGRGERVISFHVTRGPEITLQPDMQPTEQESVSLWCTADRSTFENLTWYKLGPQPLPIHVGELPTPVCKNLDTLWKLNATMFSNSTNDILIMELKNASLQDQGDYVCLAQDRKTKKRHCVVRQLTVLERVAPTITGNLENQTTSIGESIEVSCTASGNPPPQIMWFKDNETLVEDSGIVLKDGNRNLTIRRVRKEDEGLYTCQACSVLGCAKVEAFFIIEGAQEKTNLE
The assay is described as follows: competition ELISA: antibody on coated hVEGFR2-Fc against biotinylated hVEGF165 (Example 1.23). As for the experimental part: To identify molecules which could block the binding of VEGF-R2 (KDR/Flk-1) to hVEGF₁₆₅, a competition ELISA was performed. […] Plates were then washed four times with wash buffer (TBS, 0.05% Tween-20) and blocked with Superblock blocking buffer (Thermo Scientific, cat#37535). […] The samples were added to wells and incubated for 30 minutes at 25° C. with shaking. […] Following incubation, plates were washed four times with wash buffer. Streptavidin-polyHRP-40 (Fitzgerald cat#65r-s104phrp) was diluted in assay diluent (10% Superblock containing 0.05% surfactamps) and added to plates (50 μL) for 45 minutes at 25° C. with shaking. Plates were washed four times with wash buffer and developed with the addition of Enhanced K-blue TMB substrate (Neogen cat#308177). The reaction was stopped with 2N sulfuric acid (VWR, cat# BDH3500-1) and the absorbance was read at 450 nm-570 nm. A decrease in observed optical density indicates the test molecule is blocking the human VEGF-R2-Fc binding to hVEGF₁₆₅. Data was analyzed using Softmax Pro 4.8 software and IC₅₀ values calculated using a sigmoidal dose response (variable slope) fit in GraphPad Prism 5.

T13 sequence (P35918 20-762 limits assumed): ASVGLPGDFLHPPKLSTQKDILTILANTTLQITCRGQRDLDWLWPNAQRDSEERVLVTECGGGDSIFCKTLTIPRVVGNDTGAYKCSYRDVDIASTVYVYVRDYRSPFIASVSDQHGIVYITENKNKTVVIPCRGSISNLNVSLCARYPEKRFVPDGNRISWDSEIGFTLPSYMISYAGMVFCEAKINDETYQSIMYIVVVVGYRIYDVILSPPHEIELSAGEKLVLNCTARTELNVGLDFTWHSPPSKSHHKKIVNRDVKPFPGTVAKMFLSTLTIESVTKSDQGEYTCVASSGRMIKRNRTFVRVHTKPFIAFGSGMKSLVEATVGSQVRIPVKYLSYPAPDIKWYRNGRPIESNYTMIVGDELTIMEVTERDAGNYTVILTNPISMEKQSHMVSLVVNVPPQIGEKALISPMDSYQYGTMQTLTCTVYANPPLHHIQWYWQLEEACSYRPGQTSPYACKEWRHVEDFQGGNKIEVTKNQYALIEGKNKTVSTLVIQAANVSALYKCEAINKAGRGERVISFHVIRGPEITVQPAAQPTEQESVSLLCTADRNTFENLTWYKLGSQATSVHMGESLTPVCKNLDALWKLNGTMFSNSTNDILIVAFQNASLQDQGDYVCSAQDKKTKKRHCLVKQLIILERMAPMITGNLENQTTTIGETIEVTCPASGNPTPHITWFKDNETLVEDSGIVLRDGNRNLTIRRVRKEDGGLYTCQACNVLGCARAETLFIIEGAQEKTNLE
T2 sequence (Q05028 74-182 limits assumed): as the sequence (Q05028 74-182 limits assumed) above
T1 sequence (P09619 33-530 limits assumed): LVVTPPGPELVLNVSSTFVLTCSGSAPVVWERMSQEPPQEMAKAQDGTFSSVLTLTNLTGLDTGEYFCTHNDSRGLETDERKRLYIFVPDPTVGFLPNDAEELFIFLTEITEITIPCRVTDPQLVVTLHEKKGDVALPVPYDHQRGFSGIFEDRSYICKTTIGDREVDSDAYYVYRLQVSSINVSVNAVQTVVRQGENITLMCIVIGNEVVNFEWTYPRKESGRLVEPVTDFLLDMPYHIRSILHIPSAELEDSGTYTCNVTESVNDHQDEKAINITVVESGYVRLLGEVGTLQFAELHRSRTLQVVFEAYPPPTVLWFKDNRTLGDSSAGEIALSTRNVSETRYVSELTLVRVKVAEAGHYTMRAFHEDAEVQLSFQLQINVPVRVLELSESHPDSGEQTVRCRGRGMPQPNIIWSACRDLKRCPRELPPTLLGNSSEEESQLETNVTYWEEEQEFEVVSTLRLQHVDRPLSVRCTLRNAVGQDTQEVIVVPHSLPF

B1: BDE-8H6-F7 (antibody, V domains shown)
VH: EVQLVESGGGLVQPGSSLKLSCLASGFTFSNYNMYWIRQAPKKGLEWIALIFYDNNNKYYADSVKGRFTISRDNSKNTLYLEMNSLRSEDTAMYYCLRDSGPFSYWGQGTLVTVSS
VL: DIQMTQSPPSLSASLGDKVTINCQAGQNIKKYIAWYQQEPGKVPRLLIRYTSKLESDTPSRFSGSGSGRDYSFSISNVESEDIASYYCLQYDNLPWTFGGGTKLELK
notes: Rat hybridoma anti-human PDGFR-B monoclonal antibody
On to B1, for which the binding result in assay [1] is given as “binds”.

B2: 9E10.1_GS_CL-33675 (PR-1610561), anti-VEGF-A/anti-PDGF-BB DVD-Ig, hu IgG1/k L234A L235A H435A (bispecific antibody)
heavy: EIQLVQSGSELKKPGASVKVSCKASGYTFTNYGMYWVKQAPGQGLEYMGWIDTETGRPTYADDFKGRFVFSLDTSVSTAYLQISSLKAEDTAVYFCARWSGDTTGIRGPWFAYWGQGTLVTVSSGGGGSGGGGSEVTLRESGPALVKPTQTLTLTCTFSGFSLSTYGMGVGWIRQPPGKALEWLANIWWDDDKYYNPSLKNRLTISKDTSKNQVVLTMTNMDPVDTATYYCARIESSGPKYSFDYWGQGTMVTVSSASTKGPSVFPLAPSSKSTSGGTAALGCLVKDYFPEPVTVSWNSGALTSGVHTFPAVLQSSGLYSLSSVVTVPSSSLGTQTYICNVNHKPSNTKVDKKVEPKSCDKTHTCPPCPAPEAAGGPSVFLFPPKPKDTLMISRTPEVTCVVVDVSHEDPEVKFNWYVDGVEVHNAKTKPREEQYNSTYRVVSVLTVLHQDWLNGKEYKCKVSNKALPAPIEKTISKAKGQPREPQVYTLPPSREEMTKNQVSLTCLVKGFYPSDIAVEWESNGQPENNYKTTPPVLDSDGSFFLYSKLTVDKSRWQQGNVFSCSVMHEALHNAYTQKSLSLSPGK
light: DIRMTQSPSSLSASVGDRVTIECLASEDIYSDLAWYQQKPGKSPKLLIYNANGLQNGVPSRFSGSGSGTDYSLTISSLQPEDVATYFCQQYNYFPGTFGQGTKLEIKGGSGGGGSGGEIVLTQSPGTLSLSPGERATLSCRASSGSIWYSFVSWYQQKPGQAPRLLIYADDQRASGIPDRFSGSGSGTDFTLTISRLEPEDFAVYYCQSYGINIDVVFGGGTKVEIKRTVAAPSVFIFPPSDEQLKSGTASVVCLLNNFYPREAKVQWKVDNALQSGNSQESVTEQDSKDSTYSLSSTLTLSKADYEKHKVYACEVTHQGLSSPVTKSFNRGEC
notes: also called 9E10.1-GS-33675; hu VEGF 9E10.1-GS-hu PDGF 33675 [hu IgG1/k]; LALA H435A
Consider B2, for which the equilibrium dissociation constant (Kd) (as a rule, the free concentration of one partner at which half of the binding sites on the other are occupied at equilibrium, for simple one-to-one binding) in the assay with Rat PDGF-BB came out at 0.003 nM; with Rabbit PDGF-BB, 0.003 nM; in the assay with Cynomolgus monkey VEGF-A it was 0.065 nM; in assay [2], 0.0008 nM; in the assay with Mouse PDGF-BB, 0.0003 nM; in [7], 11000 nM. Also, the binding result is given as “no binding (tested: DVD-Ig 31.25 to 4000 nM)” in [3]; “no binding (tested: DVD-Ig 31.25 to 4000 nM)” in assay [4]; “no binding (tested: DVD-Ig 31.25 to 4000 nM)” in assay [5]; “no binding (tested: DVD-Ig 31.25 to 4000 nM)” in assay [6]; “no binding (tested: FcRn 2.7 to 6000 nM)” with Recombinant rat FcRn.

B3: BCU-6B1-G6 (antibody, V domains shown)
VH: QIQLVQSGPELKKPGESVKISCKASGYTFTNYGMYWVKQAPGQALQFMGWINTETGQPTYADDFKGRFVFFLETSASTAYLQINNLKNEDMATYFCARLGNNYGIWFAYWGQGTLVTVSS
VL: DIQMTQSPASLSASLGETVTIECRASDDLYSTLAWYQQKPGDSPQLLIFDANRLAAGVPSRFSGSGSGTQYSLKINSLQSEDVASYFCQQYNKFPWTFGGGTKLELK
notes: Rat hybridoma anti-human VEGFR II monoclonal antibody, isotype IgG2a/κ
Turning to B3, the IC50 (in general, the concentration that gives 50% inhibition) is 1.35 nM in assay [8] and 4.85 nM in assay [9].
